According to publication PMC6675892, “Hepatitis B Virus X Protein Function Requires Zinc Binding” (Journal of Virology, 2019):

B1: SV5-V (natural protein)
chain: MDPTDLSFSPDEINKLIETGLNTVEYFTSQQVTGTSSLGKNTIPPGVTGLLTNAAEAKIQESTNHQKGSVGGGAKPKKPRPKIAIVPADDKTVPGKPIPNPLLGLDSTPSTQTVLDLSGKTLPSGSYKGVKLAKFGKENLMTRFIEEPRENPIATSSPIDFKRGRDTGGFHRREYSIGWVGDEVKVTEWCNPSCSPITAAARRFECTCHQCPVTCSECERDT
notes: also called V protein of paramyxovirus SV5; source: E. coli Rosetta, purified (glutathione agarose, thrombin cleavage, MonoQ, Superdex 75); not shown: GST, N-terminal, cleaved

Tests used:
[1] = target: DDB1 (UniProt Q16531); assay: AUC; sedimentation velocity at 20 C, absorbance at 280 nm, c(s) distribution (SEDFIT), each protein in its final storage buffer
[2] = target: GST-DDB1 (UniProt Q16531); assay: AlphaScreen or HTRF; TR-FRET competition; 3 nM coexpressed His-HBx:GST-DDB1 complex preincubated with increasing untagged competitor 1 h at room temperature; Eu-cryptate anti-His and d2 anti-GST antibodies; 20 mM HEPES pH 7.2, 50 mM NaCl, 0.1 mg/ml BSA, 0.01% Brij-35, 0.5 mM TCEP
[3] = target: GST-DDB1 (UniProt Q16531); assay: AlphaScreen or HTRF; TR-FRET competition; 5 nM His-HBx and 5 nM GST-DDB1 expressed separately, preincubated with increasing untagged competitor 30 min at room temperature; Eu-cryptate anti-His and d2 anti-GST antibodies; 25 mM HEPES pH 7.2, 400 mM NaCl, 0.1 mg/ml BSA, 0.01% Brij-35, 0.5 mM TCEP
[4] = target: His-HBx expressed alone (detergent solubilized) (hepatitis B virus (genotype D)) (UniProt P03165); assay: as above
[5] = target: His-HBx coexpressed with GST-DDB1 (hepatitis B virus (genotype D)) (UniProt P03165); assay: AlphaScreen or HTRF; TR-FRET competition; 3 nM coexpressed His-HBx:GST-DDB1 complex preincubated with increasing untagged competitor 1 h at room temperature; Eu-cryptate anti-His and d2 anti-GST antibodies; 20 mM HEPES pH 7.2, 50 mM NaCl, 0.1 mg/ml BSA, 0.01% Brij-35, 0.5 mM TCEP
[6] = target: T1, GST-DDB1 (UniProt Q16531 1-1140); assay: as above; settings: both partners purified
T1 construct: also called glutathione S-transferase (GST)-DDB1; not shown: GST, N-terminal, kept

[7] = target: T1, GST-DDB1; assay: AlphaScreen or HTRF; TR-FRET competition; 5 nM His-HBx and 5 nM GST-DDB1 expressed separately, preincubated with increasing untagged competitor 30 min at room temperature; Eu-cryptate anti-His and d2 anti-GST antibodies; 25 mM HEPES pH 7.2, 400 mM NaCl, 0.1 mg/ml BSA, 0.01% Brij-35, 0.5 mM TCEP; settings: both partners purified

Molecule | IC50 [2] | IC50 [6] | IC50 [7] | further results
HBx coexpressed with DDB1 (HBx:DDB1 coexpressed complex) (from UniProt P03165 1-154) (natural protein) |  |  |  | stoichiometry N [1]: 1
HBx H-box peptide (R96E mutant) (from UniProt P03165 88-102) (peptide; other documents disagree on this pair) | > 100000 nM |  |  | 
recombinant untagged HBx (from UniProt P03165 1-154) (natural protein) | 9 nM |  |  | IC50 [3]: 61 nM
DDB1 (from UniProt Q16531 1-1140) (natural protein) |  |  |  | IC50 [4]: 204 nM; IC50 [5]: 16 nM
B1 |  | 4 nM | 7 nM | 
ILPKVLHKRTLGLSA [HBx H-box peptide (wild type)] |  | 1560 nM | 5000 nM | 
